B1: CWC27: human nuclear cyclophilin (protein, UniProt Q6UX04 2-472, looked up)
Spliceosome-associated …: SNIYIQEPPTNGKVLLKTTAGDIDIELWSKEAPKACRNFIQLCLEAYYDNTIFHRVVPGFIVQGGDPTGTGSGGESIYGAPFKDEFHSRLRFNRRGLVAMANAGSHDNGSQFFFTLGRADELNNKHTIFGKVTGDTVYNMLRLSEVDIDDDERPHNPHKIKSCEVLFNPFDDIIPREIKRLKKEKPEEEVKKLKPKGTKNFSLLSFGEEAEEEEEEVNRVSQSMKGKSKSSHDLLKDDPHLSSVPVVESEKGDAPDLVDDGEDESAEHDEYIDGDEKNLMRERIAKKLKKDTSANVKSAGEGEVEKKSVSRSEELRKEARQLKRELLAAKQKKVENAAKQAEKRSEEEEAPPDGAVAEYRREKQKYEALRKQQSKKGTSREDQTLALLNQFKSKLTQAIAETPENDIPETEVEDDEGWMSHVLQFEDKSRKVKDASMQDSDTFEIYDPRNPVNKRRREESKKLMREKKERR
B2: PPIL2: human nuclear cyclophilin (protein, UniProt Q13356 1-520, looked up)
RING-type E3 …: MGKRQHQKDKMYITCAEYTHFYGGKKPDLPQTNFRRLPFDHCSLSLQPFVYPVCTPDGIVFDLLNIVPWLKKYGTNPSNGEKLDGRSLIKLNFSKNSEGKYHCPVLFTVFTNNTHIVAVRTTGNVYAYEAVEQLNIKAKNFRDLLTDEPFSRQDIITLQDPTNLDKFNVSNFYHVKNNMKIIDPDEEKAKQDPSYYLKNTNAETRETLQELYKEFKGDEILAATMKAPEKKKVDKLNAAHYSTGKVSASFTSTAMVPETTHEAAAIDEDVLRYQFVKKKGYVRLHTNKGDLNLELHCDLTPKTCENFIRLCKKHYYDGTIFHRSIRNFVIQGGDPTGTGTGGESYWGKPFKDEFRPNLSHTGRGILSMANSGPNSNRSQFFITFRSCAYLDKKHTIFGRVVGGFDVLTAMENVESDPKTDRPKEEIRIDATTVFVDPYEEADAQIAQERKTQLKVAPETKVKSSQPQAGSQGPQTFRQGVGKYINPAATKRAAEEEPSTSATVPMSKKKPSRGFGDFSSW
B3: PPIL3: human nuclear cyclophilin (protein, UniProt Q9H2H8 2-161, looked up)
Peptidyl-prolyl cis-trans …: SVTLHTDVGDIKIEVFCERTPKTCENFLALCASNYYNGCIFHRNIKGFMVQTGDPTGTGRGGNSIWGKKFEDEYSEYLKHNVRGVVSMANNGPNTNGSQFFITYGKQPHLDMKYTVFGKVIDGLETLDELEKLPVNEKTYRPLNDVHIKDITIHANPFAQ
modifications: His6-GST tag
B4: PPIG: human nuclear cyclophilin (protein, UniProt Q13427 1-754, looked up)
Peptidyl-prolyl cis-trans …: MGIKVQRPRCFFDIAINNQPAGRVVFELFSDVCPKTCENFRCLCTGEKGTGKSTQKPLHYKSCLFHRVVKDFMVQGGDFSEGNGRGGESIYGGFFEDESFAVKHNKEFLLSMANRGKDTNGSQFFITTKPTPHLDGHHVVFGQVISGQEVVREIENQKTDAASKPFAEVRILSCGELIPKSKVKKEEKKRHKSSSSSSSSSSDSDSSSDSQSSSDSSDSESATEEKSKKRKKKHRKNSRKHKKEKKKRKKSKKSASSESEAENLEAQPQSTVRPEEIPPIPENRFLMRKSPPKADEKERKNRERERERECNPPNSQPASYQRRLLVTRSGRKIKGRGPRRYRTPSRSRSRDRFRRSETPPHWRQEMQRAQRMRVSSGERWIKGDKSELNEIKENQRSPVRVKERKITDHRNVSESPNRKNEKEKKVKDHKSNSKERDIRRNSEKDDKYKNKVKKRAKSKSRSKSKEKSKSKERDSKHNRNEEKRMRSRSKGRDHENVKEKEKQSDSKGKDQERSRSKEKSKQLESKSNEHDHSKSKEKDRRAQSRSRECDITKGKHSYNSRTRERSRSRDRSRRVRSRTHDRDRSRSKEYHRYREQEYRRRGRSRSRERRTPPGRSRSKDRRRRRRDSRSSEREESQSRNKDKYRNQESKSSHRKENSESEKRMYSKSRDHNSSNNSREKKADRDQSPFSKIKQSSQDNELKSSMLKNKEDEKIRSSVEKENQKSKGQENDHVHEKNKKFDHESSPGTDEDKSG
B5: PPWD: human nuclear cyclophilin (protein, UniProt Q96BP3 2-646, looked up)
Peptidylprolyl isomerase …: AAESGSDFQQRRRRRRDPEEPEKTELSERELAVAVAVSQENDEENEERWVGPLPVEATLAKKRKVLEFERVYLDNLPSASMYERSYMHRDVITHVVCTKTDFIITASHDGHVKFWKKIEEGIEFVKHFRSHLGVIESIAVSSEGALFCSVGDDKAMKVFDVVNFDMINMLKLGYFPGQCEWIYCPGDAISSVAASEKSTGKIFIYDGRGDNQPLHIFDKLHTSPLTQIRLNPVYKAVVSSDKSGMIEYWTGPPHEYKFPKNVNWEYKTDTDLYEFAKCKAYPTSVCFSPDGKKIATIGSDRKVRIFRFVTGKLMRVFDESLSMFTELQQMRQQLPDMEFGRRMAVERELEKVDAVRLINIVFDETGHFVLYGTMLGIKVINVETNRCVRILGKQENIRVMQLALFQGIAKKHRAATTIEMKASENPVLQNIQADPTIVCTSFKKNRFYMFTKREPEDTKSADSDRDVFNEKPSKEEVMAATQAEGPKRVSDSAIIHTSMGDIHTKLFPVECPKTVENFCVHSRNGYYNGHTFHRIIKGFMIQTGDPTGTGMGGESIWGGEFEDEFHSTLRHDRPYTLSMANAGSNTNGSQFFITVVPTPWLDNKHTVFGRVTKGMEVVQRISNVKVNPKTDKPYEDVSIINITVK
B6: PPIL1: human nuclear cyclophilin (protein, UniProt Q9Y3C6 1-166, looked up)
Peptidyl-prolyl cis-trans …: MAAIPPDSWQPPNVYLETSMGIIVLELYWKHAPKTCKNFAELARRGYYNGTKFHRIIKDFMIQGGDPTGTGRGGASIYGKQFEDELHPDLKFTGAGILAMANAGPDTNGSQFFVTLAPTQWLDGKHTIFGRVCQGIGMVNRVGMVETNSQDRPVDDVKIIKAYPSG

System: not given
Assay: not given
Conditions: ref Davis et al., 2010; cited from earlier work

| Molecule | activity on generic peptide substrates |
| --- | --- |
| B1 | lack activity on generic peptide substrates |
| B2 | lack activity on generic peptide substrates |

System: BMAL1 TAD
Assay: Cyclophilin acceleration of TAD switch isomerization by 15N-1H ZZ-exchange NMR
Assay type: biochemical, mouse
Conditions: room temperature (22.68°C), 400 μM 15N BMAL1 TAD + 100 μM cyclophilin, 20 mM HEPES pH 7.0 (pH 7.5 for His6GST-PPIL3), 100 mM NaCl, 2 mM TCEP

| Molecule | activity on TAD switch isomerization, in words |
| --- | --- |
| B1 | either not active on the TAD or had activity that was below the detection limit |
| B2 | either not active on the TAD or had activity that was below the detection limit |
| B3 | significantly increased the rate of isomerization in BMAL1 |
| B4 | significantly increased the rate of isomerization in BMAL1 |
| B5 | either not active on the TAD or had activity that was below the detection limit |
| B6 | significantly increased the rate of isomerization in BMAL1 |

Reference: PMC5484534 (Molecular cell, 2017)
